From the supplement of paper PMC7125110
± gives the standard error. This sample holds only a part of the variants without activity.

B1: glmS ribozyme (parent)
chain: AUAAAAGCGCCAGAACUACAGAAAUGUAGUUGACGAGGAGGAGGUUUAUCGAAUUUUCGGCGGAUGCCUCCAAA

What was measured:
Conditions in all cases: with glucosamine-6-phosphate
glucosamine-6-phosphate [1] = variants of: B1; assay: self-cleavage kobs at 40 uM GlcN6P; higher = faster cleavage; RNA array
How it was run: (§1)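 Barcoded ribozyme variants, transcribed in situ by E. coli RNA polymerase on sequenced MiSeq chips, were followed via a hybridised Cy3 probe at 37 °C. Glucosamine-6-phosphate ranged from 40 μM to 10 mM in HEPES/KCl/Mg(OAc)2 buffer. kobs came from decay fits to per-tile medians, and kcat and KM from weighted Michaelis–Menten fits.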

glucosamine-6-phosphate [2] = variants of: B1; assay: self-cleavage kobs at 160 uM GlcN6P; higher = faster cleavage; RNA array
How it was run: as §1

glucosamine-6-phosphate [3] = variants of: B1; assay: self-cleavage kobs at 640 uM GlcN6P; higher = faster cleavage; RNA array
How it was run: as §1

glucosamine-6-phosphate [4] = variants of: B1; assay: self-cleavage kobs at 10000 uM GlcN6P; higher = faster cleavage; RNA array
How it was run: as §1

glucosamine-6-phosphate [5] = variants of: B1; assay: self-cleavage kobs at 2500 uM GlcN6P; higher = faster cleavage; RNA array
How it was run: as §1

Variant | self-cleavage kobs at 40 uM GlcN6P (glucosamine-6-phosphate [1]) | self-cleavage kobs at 160 uM GlcN6P (glucosamine-6-phosphate [2]) | self-cleavage kobs at 640 uM GlcN6P (glucosamine-6-phosphate [3]) | self-cleavage kobs at 10000 uM GlcN6P (glucosamine-6-phosphate [4]) | self-cleavage kobs at 2500 uM GlcN6P (glucosamine-6-phosphate [5])
C10U G60U C67U | < 1e-05 s⁻¹ | < 1e-05 s⁻¹ | < 1e-05 s⁻¹ | < 1e-05 s⁻¹ | –
A12C G62C | < 1e-05 s⁻¹ | – | – | < 1e-05 s⁻¹ | < 1e-05 s⁻¹
C11G A39G U46G C61U U65C C68A | < 1e-05 s⁻¹ | – | – | < 1e-05 s⁻¹ | –
A12U G41U U54A | 4.72e-05 ± 1.9e-05 s⁻¹ | – | – | 0.000602 ± 0.00016 s⁻¹ | –
A12U A52G | 8.7e-05 ± 1.3e-05 s⁻¹ | 0.000171 ± 6.4e-05 s⁻¹ | 0.000717 ± 0.00014 s⁻¹ | 0.00785 ± 0.0012 s⁻¹ | 0.00267 ± 0.00049 s⁻¹
A12C A15C U47A U49A | < 1e-05 s⁻¹ | – | – | < 1e-05 s⁻¹ | –
A12U A42G U46G G63U | < 1e-05 s⁻¹ | – | – | < 1e-05 s⁻¹ | –
C11A U49C | < 1e-05 s⁻¹ | < 1e-05 s⁻¹ | – | < 1e-05 s⁻¹ | < 1e-05 s⁻¹
A12U G32C C67U | < 1e-05 s⁻¹ | – | – | – | –
C11A A14G A52C G63A | < 1e-05 s⁻¹ | – | – | – | –
A12G U47A G60A | < 1e-05 s⁻¹ | < 1e-05 s⁻¹ | < 1e-05 s⁻¹ | – | –
C10U G41U U56C C70U | < 1e-05 s⁻¹ | – | – | – | –
C11G C16A A33U C58G | < 1e-05 s⁻¹ | – | – | – | –
C11U G41C U45A C71G | < 1e-05 s⁻¹ | < 1e-05 s⁻¹ | – | – | < 1e-05 s⁻¹
C11A A14G G29A G35A A53G | < 1e-05 s⁻¹ | – | – | – | –
C10U U65C | < 1e-05 s⁻¹ | – | – | < 1e-05 s⁻¹ | –
C10U G40A A48C | < 1e-05 s⁻¹ | – | – | – | –
A12G G32A | < 1e-05 s⁻¹ | < 1e-05 s⁻¹ | – | 5.21e-05 ± 7.4e-06 s⁻¹ | –
C11U G32C C58U C70G | 4.92e-05 ± 2.1e-05 s⁻¹ | – | – | – | –
C11U C34U | < 1e-05 s⁻¹ | – | < 1e-05 s⁻¹ | < 1e-05 s⁻¹ | –
C11A U46A | < 1e-05 s⁻¹ | – | < 1e-05 s⁻¹ | < 1e-05 s⁻¹ | –
C10U A52U | < 1e-05 s⁻¹ | < 1e-05 s⁻¹ | < 1e-05 s⁻¹ | < 1e-05 s⁻¹ | < 1e-05 s⁻¹
A12U A53U | 0.00177 ± 0.00024 s⁻¹ | 0.00421 ± 0.00071 s⁻¹ | 0.0159 ± 0.0029 s⁻¹ | 0.112 ± 0.036 s⁻¹ | 0.0274 ± 0.007 s⁻¹
C10U C34G C58U | < 1e-05 s⁻¹ | – | – | – | –
A12U A14U A53G | 0.000135 ± 3.3e-05 s⁻¹ | – | – | 0.00411 ± 0.00079 s⁻¹ | –

Variant | self-cleavage kobs at 40 uM GlcN6P (glucosamine-6-phosphate [1]) | self-cleavage kobs at 160 uM GlcN6P (glucosamine-6-phosphate [2]) | self-cleavage kobs at 640 uM GlcN6P (glucosamine-6-phosphate [3]) | self-cleavage kobs at 10000 uM GlcN6P (glucosamine-6-phosphate [4]) | self-cleavage kobs at 2500 uM GlcN6P (glucosamine-6-phosphate [5])
C11U G32C U55G A64C | < 1e-05 s⁻¹ | – | < 1e-05 s⁻¹ | < 1e-05 s⁻¹ | –
C11A G32C | < 1e-05 s⁻¹ | – | – | – | –
C10U C16U U47C U65C | < 1e-05 s⁻¹ | – | – | – | –
A12U G29U G35C U49A C70A C71G | < 1e-05 s⁻¹ | < 1e-05 s⁻¹ | – | – | –
A12U C70G | 0.000124 ± 1.2e-05 s⁻¹ | 0.000175 ± 2.3e-05 s⁻¹ | 0.000558 ± 0.00013 s⁻¹ | 0.001 ± 0.00029 s⁻¹ | –
A12G A14U A36G A48G A53G | < 1e-05 s⁻¹ | – | – | < 1e-05 s⁻¹ | < 1e-05 s⁻¹
A12G G35C G60A U65G C68G | 0.000127 ± 3.9e-05 s⁻¹ | – | – | 0.000121 ± 4.1e-05 s⁻¹ | 0.000384 ± 0.00015 s⁻¹
C11G G60C | < 1e-05 s⁻¹ | < 1e-05 s⁻¹ | < 1e-05 s⁻¹ | < 1e-05 s⁻¹ | –
A12U A14G A64U G66U | < 1e-05 s⁻¹ | – | – | – | –
C10U G37A | < 1e-05 s⁻¹ | < 1e-05 s⁻¹ | – | < 1e-05 s⁻¹ | –
C10U G37C | < 1e-05 s⁻¹ | – | < 1e-05 s⁻¹ | < 1e-05 s⁻¹ | –
C11G A36G G40C | < 1e-05 s⁻¹ | < 1e-05 s⁻¹ | < 1e-05 s⁻¹ | < 1e-05 s⁻¹ | < 1e-05 s⁻¹
A12C A42U C58U | < 1e-05 s⁻¹ | – | – | – | –
C11U G44C G60U | < 1e-05 s⁻¹ | – | – | < 1e-05 s⁻¹ | –
C11U G13U U57C G62C C67A | < 1e-05 s⁻¹ | – | – | – | –
A12C G26U | 0.000614 ± 0.00014 s⁻¹ | – | 0.00546 ± 0.0013 s⁻¹ | 0.0113 ± 0.0032 s⁻¹ | 0.00321 ± 0.00099 s⁻¹
C11U A14C A36G C50A | < 1e-05 s⁻¹ | – | – | < 1e-05 s⁻¹ | –
C11G G32C G38A A42C G60C | < 1e-05 s⁻¹ | – | – | – | < 1e-05 s⁻¹
A12U A39U | 0.00122 ± 0.00014 s⁻¹ | 0.0029 ± 0.00074 s⁻¹ | 0.0129 ± 0.0047 s⁻¹ | 0.0541 ± 0.013 s⁻¹ | 0.00925 ± 0.0022 s⁻¹
C11G U31A | < 1e-05 s⁻¹ | < 1e-05 s⁻¹ | < 1e-05 s⁻¹ | – | –
C11U A15G C50G | 5.89e-05 ± 2.4e-05 s⁻¹ | – | – | – | –
C11A C34G G43C G51U G60C | < 1e-05 s⁻¹ | – | < 1e-05 s⁻¹ | – | –
C11A A36C | < 1e-05 s⁻¹ | < 1e-05 s⁻¹ | < 1e-05 s⁻¹ | < 1e-05 s⁻¹ | < 1e-05 s⁻¹
C11A G66C | < 1e-05 s⁻¹ | – | – | – | < 1e-05 s⁻¹
